Where a chain is given by its changes, count along the chain named.
Experiments:
[1] = biological target: T1, mouse transferrin receptor (mTfR) fused to EGFP, on CHO cells (mouse, UniProt Q62351 1-763); test: flow cytometry on CHO-mTfR-EGFP cells, 1 hr at 4 C, Alexa647 anti-hFc; apparent Kd, mean ± SEM of 3 experiments
T1 construct: whole, on cells; also called mouse TfR; CHO-mTfR-EGFP; not shown: EGFP
Protocol: (§1) FIGS. 8A-8B: Apparent Kd determination of VHH-Fcs and Fc-VHHs on hTfR- and mTfR-expressing CHO cell lines. (A) CHO-hTfR-EGFP and CHO-mTfR-EGFP cells were incubated 1 hr at 4° C. with various concentrations of VHH-Fcs or Fc-VHHs, detected with an Alexa647-conjugated anti-hFc antibody (1/400). Measurements were performed using flow cytometry. The ratio of fluorescence intensity for each point was normalized with the corresponding EGFP signal (receptor expression) and gave rise to the arbitrary unit. Data are presented as mean±SEM of 3 independent experiments. (B) Characteristics of selected VHH-Fcs and Fc-VHHs: Molecular Weight (Da); Apparent Kd on human TfR (nM); Apparent Kd on mouse TfR (nM). Data are presented as mean±SEM of 3 independent experiments.
(§2) The binding properties of VHH-Fc and Fc-VHH fusion proteins with an affinity for the TfR were tested in flow cytometry experiments, and apparent affinity (K_{d app}) were determined. All experiments were performed in 96 well plates using 2-3×10⁵ cells/well, at 4° C. with shaking. […] After washes, cells were incubated for 1 hr with an Alexa647-conjugated anti-hFc antibody (Jackson ImmunoResearch). After 3 last washes and cells resuspension in PBS, fluorescence was immediately measured using a MACSQuant flow cytometer (Miltenyi), and results were analyzed with the MACSQuant software. […] The VHH-Fc and Fc-VHH K_{d app} were calculated using GraphPad Prism software (FIG. 8-B).

[2] = biological target: T2, human transferrin receptor (hTfR) fused to EGFP, on CHO cells (human, UniProt P02786 1-760); test: flow cytometry on CHO-hTfR-EGFP cells, 1 hr at 4 C, Alexa647 anti-hFc; apparent Kd, mean ± SEM of 3 experiments
T2 construct: whole, on cells; also called human TfR; CHO-hTfR-EGFP; not shown: EGFP from pEGFP-C1 vector, fused to the N-terminal (intracellular) end of hTfR
T2 sequence (P02786 whole entry, the tested form may be a part): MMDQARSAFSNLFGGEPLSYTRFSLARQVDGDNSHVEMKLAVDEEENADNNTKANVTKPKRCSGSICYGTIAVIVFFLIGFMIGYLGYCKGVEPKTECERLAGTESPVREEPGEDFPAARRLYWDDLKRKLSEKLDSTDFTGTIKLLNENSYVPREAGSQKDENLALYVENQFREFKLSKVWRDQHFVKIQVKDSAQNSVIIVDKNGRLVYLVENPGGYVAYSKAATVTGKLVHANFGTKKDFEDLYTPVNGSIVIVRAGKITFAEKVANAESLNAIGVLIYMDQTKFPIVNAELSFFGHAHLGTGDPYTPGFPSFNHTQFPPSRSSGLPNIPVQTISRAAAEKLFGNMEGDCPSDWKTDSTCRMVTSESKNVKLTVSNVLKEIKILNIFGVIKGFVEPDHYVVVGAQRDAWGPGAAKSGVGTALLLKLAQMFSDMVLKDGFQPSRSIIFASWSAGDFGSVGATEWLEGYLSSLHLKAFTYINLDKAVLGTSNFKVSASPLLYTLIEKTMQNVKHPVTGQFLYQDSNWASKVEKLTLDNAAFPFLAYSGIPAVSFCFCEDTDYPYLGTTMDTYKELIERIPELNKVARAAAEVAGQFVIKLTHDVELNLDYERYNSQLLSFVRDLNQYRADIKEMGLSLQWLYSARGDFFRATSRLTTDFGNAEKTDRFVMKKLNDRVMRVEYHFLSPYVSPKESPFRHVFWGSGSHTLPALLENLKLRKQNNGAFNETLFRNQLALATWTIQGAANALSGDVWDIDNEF
Protocol: as §1, §2

[3] = biological target: T2, human transferrin receptor (hTfR) fused …; test: apparent Kd, cell-based assay
[4] = biological target: T2, human transferrin receptor (hTfR) fused …; test: apparent Kd, flow cytometry, CHO cells
Protocol: All experiments were performed in 96 well plates using 2×10⁵ cells/well, at 4° C. with shaking. CHO cell lines stably expressing the hTfR or the mTfR fused to EGFP or CHO WT cells were saturated with PBS/BSA 2% solution during 30 min to avoid non-specific binding, followed by incubation with purified VHHs at concentrations ranging from 50 μM to 5 μM for 1 hr. After one wash in PBS/BSA 2%, cells were incubated for 1 hr with an anti-6His tag antibody (mouse), washed twice with PBS/BSA 2%, and incubated for 45 min with an Alexa647-conjugated anti-mouse secondary antibody. After two last washes in PBS/BSA 2%, cells were fixed by incubation for 15 min with PBS/PFA 2%, washed once with PBS and finally resuspended in PBS and stored at 4° C. Fluorescence levels were assessed using an Attune NxT Flow Cytometer (Thermo Fisher Scientific). […] No labeling of the CHO WT control cells was detected with all the tested VHHs (not shown). The VHH K_{d app} were calculated using GraphPad Prism software (FIG. 11-B; 12-B).

[5] = biological target: T3, human TfR ectodomain fused to a mouse IgG1 Fc fragment (human, UniProt P02786 89-760); test: SPR, kinetic
T3 construct: extracellular domain; ectodomain fused to the N-terminal end of the Fc, made in-house; not shown: mouse IgG1 Fc fragment
T3 sequence (P02786 89-760): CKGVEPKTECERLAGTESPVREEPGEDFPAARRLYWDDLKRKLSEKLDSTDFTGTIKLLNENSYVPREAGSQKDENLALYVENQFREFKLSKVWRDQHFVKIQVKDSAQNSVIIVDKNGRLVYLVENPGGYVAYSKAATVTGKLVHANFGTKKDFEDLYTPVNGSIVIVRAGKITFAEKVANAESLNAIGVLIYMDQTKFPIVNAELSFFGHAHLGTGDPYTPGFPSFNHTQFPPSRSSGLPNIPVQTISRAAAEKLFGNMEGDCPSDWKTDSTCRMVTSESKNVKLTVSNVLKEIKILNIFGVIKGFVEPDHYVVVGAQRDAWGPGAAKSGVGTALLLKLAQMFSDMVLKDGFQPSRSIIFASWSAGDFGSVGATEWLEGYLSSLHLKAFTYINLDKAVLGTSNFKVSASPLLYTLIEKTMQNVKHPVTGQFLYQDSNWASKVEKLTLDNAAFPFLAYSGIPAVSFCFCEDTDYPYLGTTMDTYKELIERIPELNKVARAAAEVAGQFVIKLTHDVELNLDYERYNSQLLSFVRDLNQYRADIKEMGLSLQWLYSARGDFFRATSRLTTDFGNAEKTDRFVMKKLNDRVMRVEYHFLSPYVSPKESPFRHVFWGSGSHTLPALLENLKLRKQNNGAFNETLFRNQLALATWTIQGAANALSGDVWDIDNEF
Procedure, shortened: (§3)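 TfR–mouse Fc fusions, produced in-house, captured on HC 1500M or CM5 chips either directly or via immobilized anti-mouse IgG. VHHs injected in single-cycle or multiple-cycle kinetic mode on Biacore T200.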

[6] = biological target: T4, rhesus monkey TfR ectodomain fused to a mouse IgG1 Fc fragment (rhesus monkey, UniProt I0FKY7 89-760); test: SPR, kinetic
T4 construct: extracellular domain; not shown: mouse IgG1 Fc fragment
Procedure, shortened: as §3

[7] = biological target: T5, mouse TfR ectodomain fused to a mouse IgG1 Fc fragment (mouse, UniProt Q62351 89-763); test: SPR, kinetic
T5 construct: extracellular domain; not shown: mouse IgG1 Fc fragment
T5 sequence (Q62351 89-763): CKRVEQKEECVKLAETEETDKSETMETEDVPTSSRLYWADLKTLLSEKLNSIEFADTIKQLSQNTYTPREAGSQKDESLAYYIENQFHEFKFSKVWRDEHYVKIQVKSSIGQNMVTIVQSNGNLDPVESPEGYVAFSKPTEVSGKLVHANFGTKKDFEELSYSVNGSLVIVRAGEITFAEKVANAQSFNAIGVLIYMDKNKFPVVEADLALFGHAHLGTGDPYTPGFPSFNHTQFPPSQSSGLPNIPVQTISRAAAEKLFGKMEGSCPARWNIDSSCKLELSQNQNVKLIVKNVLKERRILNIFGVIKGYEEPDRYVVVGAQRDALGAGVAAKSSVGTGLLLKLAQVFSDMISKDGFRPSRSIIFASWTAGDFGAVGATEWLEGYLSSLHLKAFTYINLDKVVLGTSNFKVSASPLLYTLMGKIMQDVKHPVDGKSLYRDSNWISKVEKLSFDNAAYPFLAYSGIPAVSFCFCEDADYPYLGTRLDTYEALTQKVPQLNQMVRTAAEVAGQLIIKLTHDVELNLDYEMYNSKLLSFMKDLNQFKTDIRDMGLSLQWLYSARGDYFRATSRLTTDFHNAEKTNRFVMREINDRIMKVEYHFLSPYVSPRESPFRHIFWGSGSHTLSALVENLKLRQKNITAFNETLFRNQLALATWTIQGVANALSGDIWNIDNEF
Procedure, shortened: as §3

[8] = biological target: T6, murine TfR expressed by murine neuroblastoma Neuro-2a cells (mouse, UniProt Q62351 1-763); test: competition with the fluorescent reference VHH on Neuro-2a cells as in FIG. 25; Ki/app on mTfR, free VHH
T6 construct: whole, on cells; also called mTfR (N2a cells)
T6 sequence (Q62351 whole entry): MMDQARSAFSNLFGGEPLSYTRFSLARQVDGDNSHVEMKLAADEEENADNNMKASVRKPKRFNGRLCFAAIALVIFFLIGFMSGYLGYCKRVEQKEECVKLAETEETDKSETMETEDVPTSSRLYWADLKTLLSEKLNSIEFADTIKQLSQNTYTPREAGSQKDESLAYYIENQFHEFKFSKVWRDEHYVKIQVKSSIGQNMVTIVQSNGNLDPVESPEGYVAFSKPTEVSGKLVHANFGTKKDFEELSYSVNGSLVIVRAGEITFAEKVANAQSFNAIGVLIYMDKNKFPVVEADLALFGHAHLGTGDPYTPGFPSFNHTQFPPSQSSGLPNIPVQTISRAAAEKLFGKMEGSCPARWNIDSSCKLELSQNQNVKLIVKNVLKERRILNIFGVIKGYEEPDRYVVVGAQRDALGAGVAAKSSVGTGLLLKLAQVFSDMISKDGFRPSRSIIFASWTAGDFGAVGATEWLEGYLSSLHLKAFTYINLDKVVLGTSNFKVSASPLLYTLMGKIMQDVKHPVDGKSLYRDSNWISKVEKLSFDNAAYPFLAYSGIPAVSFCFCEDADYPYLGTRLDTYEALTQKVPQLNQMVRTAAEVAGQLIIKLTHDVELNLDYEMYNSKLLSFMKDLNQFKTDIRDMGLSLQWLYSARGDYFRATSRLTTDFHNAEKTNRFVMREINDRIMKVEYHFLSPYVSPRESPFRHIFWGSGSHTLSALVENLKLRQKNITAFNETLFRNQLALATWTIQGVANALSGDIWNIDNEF
Protocol: (§4) The binding of VHH-Oligo and VHH-hFc-Oligo conjugates to mTfR was evaluated using a competition assay on living cells expressing the receptor of interest, namely murine neuroblastoma Neuro-2a cells (N2a). N2a cells were grown in Dulbecco's Modified Eagle Medium (DMEM) GlutaMAX supplemented with 10% v/v FBS in 5% CO₂ at 37° C. Cells were seeded two days before experiments in 96-well plates at a density of 50.000 cells/well. […] Resuspended cells were transferred in a 96-deepwell plate (V-bottom) containing 1% fetal bovine serum (FBS)/0.02% sodium azide in phosphate-buffered saline (PBS) and then centrifuged for 5 min at 2000 rpm at 4° C. After removing the supernatant, 5 mM EDTA in D-PBS and 4% paraformaldehyde (PFA) (v/v 1:1) were added into wells to fix cells for 15 min at room temperature. PFA was removed by centrifugation (5 min, 3000 rpm, 4° C.) and cells were resuspended with 5 mM EDTA in D-PBS. Then the cellular A680-associated fluorescence signal was quantified using an Attune™ NxT flow cytometer (Thermo Fisher Scientific) equipped with Attune™ NxT v3.1.2. Experimental data (experimental triplicates) were fitted with GraphPad Prism® software using a nonlinear fit to determine the apparent Ki inhibition constants.

[9] = biological target: T7, rhesus monkey transferrin receptor (rhTfR) fused to EGFP, on CHO cells (rhesus monkey); test: apparent Kd, flow cytometry, CHO cells
T7 construct: whole, on cells; also called rhesus monkey TfR
Procedure, shortened: (§5)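 CHO cells expressing TfR-EGFP fusions, blocked in PBS/BSA 2%, then incubated with increasing VHH concentrations for 1 hr at 4° C. Bound VHH detected via anti-6His antibody and Alexa647 secondary, cells PFA-fixed, read by flow cytometry. Apparent Kd from nonlinear fit.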

[10] = biological target: T1, mouse transferrin receptor (mTfR) fused …; test: apparent Kd, flow cytometry, CHO cells
Procedure, shortened: as §5

[11] = biological target: T2, human transferrin receptor (hTfR) fused …; test: apparent Kd, flow cytometry, CHO cells; remark: listed apart in the source
Procedure, shortened: as §5

[12] = biological target: T2, human transferrin receptor (hTfR) fused …; test: flow cytometry on CHO-hTfR-EGFP cells, 1 hr at 4 C, anti-6His + Alexa647 anti-mouse; ratio to background fluorescence
Protocol: FIGS. 15A-15H: In vitro gene silencing activity of VHH-siGFPst1 bioconjugates. […] CHO-hTfR-EGFP cells were incubated 1 hr at 4° C. with various concentrations of the indicated compounds. Detection of VHHs was performed using a primary mouse anti-6His (1/1000) and an Alexa647-conjugated anti-mouse secondary antibody (1/400). Measurements of cell-surface signal associated to VHH were performed using flow cytometry. The results are expressed as the ratio of Alexa647-associated fluorescence intensity of test compounds to that of background fluorescence. […] The total fluorescence associated to the EGFP protein was then quantified using flow cytometry and rationalized to that of untreated (control) cells (set at 100%) *** p≤0.001. […] The total fluorescence associated with the EGFP protein was then quantified using flow cytometry and rationalized to that of untreated (control) cells (set at 100%). […] CHO-hTfR-EGFP cells were incubated with the indicated compounds at 1 μM during 120 hrs at 37° C. Data were processed and analyzed as described in (B). *** p≤0.001 vs. untreated cells. […] The total fluorescence associated with the EGFP protein was then quantified using flow cytometry and rationalized to that of untreated (control) cells (set at 100%).

[13] = biological target: T6, murine TfR expressed by murine …; test: competition with C5-Alexa680 (100 nM) on living Neuro-2a cells, 3 hrs at 37 C, flow cytometry; Ki/app, mean ± SD
Protocol: as §4

[14] = biological target: T5, mouse TfR ectodomain fused to a mouse …; test: SPR, at equilibrium
Procedure, shortened: as §3

T1 sequence (Q62351 whole entry, the tested form may be a part): as the sequence (Q62351 whole entry) above

B1: Fc-VHH A (Fc fusion)
VHH: EVQLVESGGGVVQPGGSLKLSCVASGTDFSINFIRWYRQAPGKQREFVAGFTATGNTNYADSMKGRFTISRDNTKNAVYLQIDSLKPEDTAVYYCYMLDKWGQGTQVTVSS
modifications: Genetic fusion with the VHH at the C-terminus of a human IgG1 Fc. It forms a homodimer, so it is bivalent.
notes: not shown: Human IgG1 Fc of the pINFUSE-IgG1-Fc2 vector (InvivoGen), N-terminal to the VHH, and any junction or linker residues
Kd [1]: 22 nM | Kd [2]: 1.3 nM

B2: C5h18-NT(8-13) (VHH)
VHH: B1 VHH with Q44G, R45L, M63V, T74A, A77T, V78L, I82M, D83N, K86R
Kd [3]: 16.8 nM

B3: VHH A12 (C5^V12) (VHH)
VHH: B1 VHH with F51I
Kd [4]: 363 nM

B4: C12b-NT(8-13) (VHH)
VHH: QVQLVQSGGGLVQPGGSLRLSCAASGFTFSAYAMSWVRQAPGKGRELVASISRTGDGTYYADGMKGRFTISRDNAENTVSLQINSLKPEDTAIYYCGAGINPTKYWGQGTQVTVSS
Kd [3]: 1860 nM

B5: Fc-VHH B (Fc fusion)
VHH: EVQLVESGGGVVQPGGSLRLSCAASGEIFSINFMRWYRQAPGKQREWVAGFTRDGSTNYPDSAKGRFTISRDNAKNTVYLQIDSLKPEDTAVYYCYMLDTWGQGTQVTVSS
modifications: Genetic fusion with the VHH at the C-terminus of a human IgG1 Fc. It forms a homodimer, so it is bivalent.
notes: as for B1
Kd [1]: 51 nM | Kd [2]: 1.5 nM

B6: VHH B (B8) (VHH)
VHH: B5 VHH
Kd [5]: 0.0559 nM | koff [5]: 3.06e-05 s⁻¹ | kon [5]: 677000 M⁻¹ s⁻¹ | Kd [6]: 0.0951 nM | koff [6]: 9.54e-05 s⁻¹ | kon [6]: 1e+06 M⁻¹ s⁻¹ | Kd [7]: 27 nM | koff [7]: 0.0243 s⁻¹ | kon [7]: 1.23e+06 M⁻¹ s⁻¹ | Ki [8]: 56.2 nM | Kd [9]: 2.2 nM | Kd [10]: 7.5 nM | Kd [11]: 1.7 nM | EC50 (read off the curve) [12]: ~4 nM | Ki [13]: 56.2 nM | Kd [14]: 37.5 nM

B7: VHH B-Fc (Fc fusion)
chain: B5 VHH
notes: not shown: human IgG1 Fc fragment of the pINFUSE-IgG1-Fc2 vector (InvivoGen)
Kd [1]: 0.61 nM | Kd [2]: 1.2 nM
